US10654911

Biological target: recombinant FVIII (Prospec Bio) (UniProt P00451)
Assay: ELISA: vWF-Fc variant coated on the plate, recombinant FVIII at 0-4000 pM, detected with sheep anti-FVIII polyclonal antibody and HRP secondary antibody

Sequence of UniProt P00451 (P00451 other isoform, or with tags, fused parts or gaps limits assumed): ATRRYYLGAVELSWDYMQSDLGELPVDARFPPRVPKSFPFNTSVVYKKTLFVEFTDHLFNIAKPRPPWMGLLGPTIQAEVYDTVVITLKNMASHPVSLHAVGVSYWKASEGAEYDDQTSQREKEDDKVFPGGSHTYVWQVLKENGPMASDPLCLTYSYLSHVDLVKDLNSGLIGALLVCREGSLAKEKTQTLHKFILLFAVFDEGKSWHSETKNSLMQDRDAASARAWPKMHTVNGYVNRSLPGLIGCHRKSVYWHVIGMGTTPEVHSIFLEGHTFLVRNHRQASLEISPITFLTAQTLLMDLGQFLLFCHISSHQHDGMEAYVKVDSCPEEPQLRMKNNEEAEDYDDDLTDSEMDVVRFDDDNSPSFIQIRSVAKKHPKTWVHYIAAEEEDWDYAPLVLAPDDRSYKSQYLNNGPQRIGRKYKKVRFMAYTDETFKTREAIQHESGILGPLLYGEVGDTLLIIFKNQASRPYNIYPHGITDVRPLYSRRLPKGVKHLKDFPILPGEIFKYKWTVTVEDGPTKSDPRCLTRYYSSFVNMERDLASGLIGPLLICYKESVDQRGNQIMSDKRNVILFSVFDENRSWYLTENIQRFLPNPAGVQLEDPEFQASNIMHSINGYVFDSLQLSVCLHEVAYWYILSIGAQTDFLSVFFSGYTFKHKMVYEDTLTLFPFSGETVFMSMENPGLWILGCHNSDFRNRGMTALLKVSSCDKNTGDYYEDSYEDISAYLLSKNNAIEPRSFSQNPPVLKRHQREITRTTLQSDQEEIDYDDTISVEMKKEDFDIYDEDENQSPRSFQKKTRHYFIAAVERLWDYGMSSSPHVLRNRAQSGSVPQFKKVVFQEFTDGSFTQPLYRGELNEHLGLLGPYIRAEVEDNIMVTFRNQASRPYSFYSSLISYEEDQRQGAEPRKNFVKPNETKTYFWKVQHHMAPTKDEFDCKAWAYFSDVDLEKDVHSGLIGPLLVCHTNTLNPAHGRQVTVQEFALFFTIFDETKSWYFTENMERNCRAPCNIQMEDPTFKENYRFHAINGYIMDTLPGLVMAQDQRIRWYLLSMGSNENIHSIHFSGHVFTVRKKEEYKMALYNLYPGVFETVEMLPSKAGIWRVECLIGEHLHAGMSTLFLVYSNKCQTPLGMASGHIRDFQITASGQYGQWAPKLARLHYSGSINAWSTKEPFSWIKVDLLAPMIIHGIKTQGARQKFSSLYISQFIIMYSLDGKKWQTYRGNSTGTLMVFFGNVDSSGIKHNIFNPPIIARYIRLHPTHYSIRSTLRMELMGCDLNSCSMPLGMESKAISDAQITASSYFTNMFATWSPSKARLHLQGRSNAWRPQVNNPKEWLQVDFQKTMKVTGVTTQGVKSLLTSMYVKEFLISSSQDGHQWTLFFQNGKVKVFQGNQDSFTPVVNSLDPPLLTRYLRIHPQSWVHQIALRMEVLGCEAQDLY

Kd: 0.5 nM
Substance: Pro-D′D3-Fc (Fc fusion)
